Paper PMC9843812, “The ybcF Gene of Escherichia coli Encodes a Local Orphan Enzyme, Catabolic Carbamate Kinase” (Journal of Microbiology and Biotechnology, 2022)

Columns and labels:
[1] = substrate: NC(=O)OP(=O)(O)O; assay: ATP formation measured by firefly luciferase luminescence, Michaelis-Menten / Lineweaver-Burk; format: biochemical, Escherichia coli; conditions: 2 mM ADP fixed, CP 0-3 mM, 30 mM MgCl2, 20 mM Tris-Cl pH 8, 28 °C, 60 min, 100 nM enzyme
[2] = substrate: Nc1ncnc2c1ncn2[C@@H]1O[C@H](COP(=O)(O)OP(=O)(O)O)[C@@H](O)[C@H]1O; assay: as above; format: biochemical, Escherichia coli; conditions: 2 mM CP fixed, ADP 0-3 mM, 30 mM MgCl2, 20 mM Tris-Cl pH 8, 28 °C, 60 min, 100 nM enzyme

B1: YbcF (catabolic carbamate kinase, CK; proposed AllK) (Escherichia coli K-12) (protein)
chain: MKTLVVALGGNALLQRGEALTAENQYRNIASAVPALARLARSYRLAIVHGNGPQVGLLALQNLAWKEVEPYPLDVLVAESQGMIGYMLAQSLSAQPQMPPVTTVLTRIEVSPDDPAFLQPEKFIGPVYQPEEQEALEAAYGWQMKRDGKYLRRVVASPQPRKILDSEAIELLLKEGHVVICSGGGGVPVTDDGAGSEAVIDKDLAAALLAEQINADGLVILTDADAVYENWGTPQQRAIRHATPDELAPFAKADGSMGPNVTAVSGYVRSRGKPAWIGALSRIEETLAGEAGTCISL
[1]
  Km: 470 µM
[2]
  Km: 430 µM
